Earlier results, collected in PMC4540119.
Like-named read-outs stand apart in the source and are kept apart here.

Assays:
[1] = target: integrin α6β1 (Homo sapiens) (UniProt P23229)
[2] = target: integrin α6β1 (Homo sapiens) (UniProt P23229); remark: listed apart in the source

UniProt P23229, sequence (P23229 24-1050, chain 1 of 2): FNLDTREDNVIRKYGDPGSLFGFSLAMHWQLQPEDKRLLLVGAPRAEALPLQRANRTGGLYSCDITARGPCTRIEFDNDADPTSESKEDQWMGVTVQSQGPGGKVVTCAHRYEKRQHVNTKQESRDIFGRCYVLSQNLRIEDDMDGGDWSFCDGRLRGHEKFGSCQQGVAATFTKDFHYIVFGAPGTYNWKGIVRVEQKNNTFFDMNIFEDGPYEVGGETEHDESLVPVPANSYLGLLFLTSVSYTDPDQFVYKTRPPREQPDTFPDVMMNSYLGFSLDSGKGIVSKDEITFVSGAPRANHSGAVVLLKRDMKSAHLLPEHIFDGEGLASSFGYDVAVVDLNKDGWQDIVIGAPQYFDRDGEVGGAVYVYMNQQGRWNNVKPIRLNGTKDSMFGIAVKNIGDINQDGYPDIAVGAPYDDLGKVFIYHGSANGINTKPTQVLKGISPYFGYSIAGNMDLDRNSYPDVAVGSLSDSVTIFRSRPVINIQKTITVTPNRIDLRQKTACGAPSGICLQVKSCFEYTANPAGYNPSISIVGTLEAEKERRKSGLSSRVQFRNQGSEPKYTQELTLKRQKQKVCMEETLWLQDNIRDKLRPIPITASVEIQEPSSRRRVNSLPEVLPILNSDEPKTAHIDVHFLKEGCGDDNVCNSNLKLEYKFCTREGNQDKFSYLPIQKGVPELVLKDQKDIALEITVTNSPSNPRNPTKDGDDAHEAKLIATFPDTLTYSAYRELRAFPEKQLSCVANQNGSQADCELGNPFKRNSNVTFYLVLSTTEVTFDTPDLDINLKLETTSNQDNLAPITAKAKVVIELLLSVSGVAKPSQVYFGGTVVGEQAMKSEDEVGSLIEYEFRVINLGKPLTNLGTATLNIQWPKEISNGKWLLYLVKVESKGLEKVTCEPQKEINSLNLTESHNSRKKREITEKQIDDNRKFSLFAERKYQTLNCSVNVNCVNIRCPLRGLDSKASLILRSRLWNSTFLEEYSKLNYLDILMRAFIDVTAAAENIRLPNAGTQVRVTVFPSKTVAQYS
UniProt P23229, sequence (P05556 21-728, chain 2 of 2, further chain): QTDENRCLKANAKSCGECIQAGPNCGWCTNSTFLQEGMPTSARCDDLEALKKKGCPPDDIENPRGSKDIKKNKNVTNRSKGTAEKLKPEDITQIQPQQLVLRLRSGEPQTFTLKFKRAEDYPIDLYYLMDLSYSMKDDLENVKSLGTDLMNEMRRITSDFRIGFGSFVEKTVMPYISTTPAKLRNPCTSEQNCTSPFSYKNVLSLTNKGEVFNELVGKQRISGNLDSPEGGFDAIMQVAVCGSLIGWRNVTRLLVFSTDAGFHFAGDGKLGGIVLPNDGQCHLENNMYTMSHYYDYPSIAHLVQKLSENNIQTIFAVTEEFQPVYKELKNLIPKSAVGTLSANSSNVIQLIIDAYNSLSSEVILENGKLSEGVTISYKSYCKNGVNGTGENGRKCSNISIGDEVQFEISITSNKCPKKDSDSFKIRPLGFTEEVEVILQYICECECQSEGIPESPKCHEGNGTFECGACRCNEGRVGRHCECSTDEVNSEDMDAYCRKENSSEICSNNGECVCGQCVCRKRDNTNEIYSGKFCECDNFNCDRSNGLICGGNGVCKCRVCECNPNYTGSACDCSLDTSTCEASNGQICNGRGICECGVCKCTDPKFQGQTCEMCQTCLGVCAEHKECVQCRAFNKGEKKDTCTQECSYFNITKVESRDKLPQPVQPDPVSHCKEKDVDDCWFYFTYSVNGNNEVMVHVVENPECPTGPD

| Substance | Kd [1] [nM] | Kd [2] [nM] |
| --- | --- | --- |
| laminin-111 (from UniProt P25391) | 9.5 | – |
| laminin-521 (from UniProt O15230) | – | 0.72 |
